Where two headings read alike, the source gives them in different places.
Legend:
DepBRleg [1] = molecular target: T1, DepBRleg (Rhizobium leguminosarum, UniProt J0WHR2); test: NADPH oxidation at […] nm; type: biochemical
T1 construct: gene Rleg4DRAFT_7458; N-terminal His-tag, pET28a (NdeI/HindIII), expressed in E. coli BL21 LOBSTR; about 39 kDa protomer; octamer

DepBRleg [2] = molecular target: T2, DepBRleg (Rhizobium leguminosarum, UniProt J0WHR2, R290E); test: tryptophan fluorescence quenching; type: binding
T2 construct: gene Rleg4DRAFT_7458; N-terminal His-tag, pET28a (NdeI/HindIII), expressed in E. coli BL21 LOBSTR; about 39 kDa protomer; octamer
Description: (§1) tryptophan fluorescence quenching on DepBRleg

DepBRleg [3] = molecular target: T3, DepBRleg (Rhizobium leguminosarum, UniProt J0WHR2, Q294E); test: tryptophan fluorescence quenching; type: binding
T3 construct: gene Rleg4DRAFT_7458; N-terminal His-tag, pET28a (NdeI/HindIII), expressed in E. coli BL21 LOBSTR; about 39 kDa protomer; octamer
Description: as §1

DepBRleg [4] = molecular target: T1, DepBRleg; test: tryptophan fluorescence quenching; type: binding
Description: as §1

[5] = molecular target: DepB from Rhizobium leguminosarum (DepB_(Rleg)) (Rhizobium leguminosarum); test: SEC-MALS; P3000 single-pore GPC/SEC column; 20 mM HEPES, 150 mM NaCl, 0.02% NaN3, pH 7; protein at 0.5 mg/mL
[6] = test system: O=C1C(=O)c2ccccc2-c2ccccc21; test: purified protein; type: biochemical, Rhizobium leguminosarum; details: pH 7.5; 25.0 °C
DepBRleg [7] = molecular target: T4, DepBRleg (Rhizobium leguminosarum, UniProt J0WHR2, K217E); test: tryptophan fluorescence quenching; type: binding
T4 construct: gene Rleg4DRAFT_7458; N-terminal His-tag, pET28a (NdeI/HindIII), expressed in E. coli BL21 LOBSTR; about 39 kDa protomer; octamer
Description: as §1

DepBRleg [8] = molecular target: T5, DepBRleg (Rhizobium leguminosarum, UniProt J0WHR2, K217M); test: tryptophan fluorescence quenching; type: binding
T5 construct: gene Rleg4DRAFT_7458; N-terminal His-tag, pET28a (NdeI/HindIII), expressed in E. coli BL21 LOBSTR; about 39 kDa protomer; octamer
Description: as §1

DepBRleg [9] = molecular target: T6, DepBRleg (Rhizobium leguminosarum, UniProt J0WHR2, R290N); test: tryptophan fluorescence quenching; type: binding
T6 construct: gene Rleg4DRAFT_7458; N-terminal His-tag, pET28a (NdeI/HindIII), expressed in E. coli BL21 LOBSTR; about 39 kDa protomer; octamer
Description: as §1

purified protein [10] = substrate: CCCC=O; test: purified protein; type: biochemical, Rhizobium leguminosarum; details: 1 mM NADPH, 100 mM HEPES pH 7.5, 298 K, about 10% DMSO, 25.0 °C
purified protein [11] = substrate: CCCCCC(=O)/C=C/C=O; test: purified protein; type: biochemical, Rhizobium leguminosarum; details: 1 mM NADPH, 100 mM HEPES pH 7.5, 298 K, about 10% DMSO, 25.0 °C
purified protein [12] = substrate: NC(=O)C1=CN([C@@H]2O[C@H](COP(=O)(O)OP(=O)(O)OC[C@H]3O[C@@H](n4cnc5c(N)ncnc54)[C@H](OP(=O)(O)O)[C@@H]3O)[C@@H](O)[C@H]2O)C=CC1; test: purified protein; type: biochemical, Rhizobium leguminosarum; details: 10 mM DL-glyceraldehyde, 100 mM HEPES pH 7.5, 298 K, 25.0 °C, varied: cofactor
purified protein [13] = substrate: CCCCCC=O; test: purified protein; type: biochemical, Rhizobium leguminosarum; details: 1 mM NADPH, 100 mM HEPES pH 7.5, 298 K, about 10% DMSO, 25.0 °C
purified protein [14] = substrate: O=C1Nc2ccccc2C1=O; test: purified protein; type: biochemical, Rhizobium leguminosarum; details: 1 mM NADPH, 100 mM HEPES pH 7.5, 298 K, about 10% DMSO, 25.0 °C
purified protein [15] = substrate: O=CC(O)CO; test: purified protein; type: biochemical, Rhizobium leguminosarum; details: 1 mM NADPH, 100 mM HEPES pH 7.5, 298 K, about 10% DMSO, 25.0 °C
purified protein [16] = substrate: NC(=O)C1=CN([C@@H]2O[C@H](COP(=O)(O)OP(=O)(O)OC[C@H]3O[C@@H](n4cnc5c(N)ncnc54)[C@H](O)[C@@H]3O)[C@@H](O)[C@H]2O)C=CC1; test: purified protein; details: 10 mM DL-glyceraldehyde, 100 mM HEPES pH 7.5, 298 K, 25.0 °C, varied: cofactor

O=C1C=C2C(=CCOC2O)O1 (stereo not drawn) [Patulin]
Km (DepBRleg [1]; read-out: Km,app; 1 mM NADPH, 100 mM HEPES pH 7.5, 298 K, about 10% DMSO): 678 ± 85.5 µM

NC(=O)C1=CN([C@@H]2O[C@H](COP(=O)(O)OP(=O)(O)OC[C@H]3O[C@@H](n4cnc5c(N)ncnc54)[C@H](O)[C@@H]3O)[C@@H](O)[C@H]2O)C=CC1 [NADH]
Kd (DepBRleg [2]): 119 ± 9.8 µM
Kd (DepBRleg [3]): 91.2 ± 10 µM
Kd (DepBRleg [4]): 67.3 ± 2.5 µM

DepB from Rhizobium leguminosarum (DepB_(Rleg)) (enzyme)
stoichiometry N [5]: 8

DepBRleg (Rhizobium leguminosarum bv. trifolii WSM2297)
Km [6]: 68.3 ± 14.3 µM

NC(=O)C1=CN([C@@H]2O[C@H](COP(=O)(O)OP(=O)(O)OC[C@H]3O[C@@H](n4cnc5c(N)ncnc54)[C@H](OP(=O)(O)O)[C@@H]3O)[C@@H](O)[C@H]2O)C=CC1 [NADPH]
Kd (DepBRleg [2]): 123 ± 6.2 µM
Kd (DepBRleg [7]): 68.6 ± 8.7 µM
Kd (DepBRleg [3]): 97.9 ± 13 µM
Kd (DepBRleg [4]): 11.4 ± 0.84 µM
Kd (DepBRleg [8]): 74.1 ± 4.6 µM
Kd (DepBRleg [9]): 59.5 ± 4.2 µM

C=CC=O [Acrolein]
Km (DepBRleg [1]; 1 mM NADPH, 100 mM HEPES pH 7.5, 298 K, about 10% DMSO; read-out: Km,app): 83.3 ± 6.69 µM

B1: DepBRleg (Rhizobium leguminosarum bv. trifolii WSM2297) (protein)
chain: MDYRKLGPSGTVVTAYCLGTMTFGAEADEAASHKLLDDYFAWGGNFIDTADVYSAGKSEEIIGRWLKARPTEARQAIVATKGRFPMGNGPNDIGLSRRHLSQALDDSLRRLGLEQIDLYQMHAWDALTPIEETLRFLDDAVSSGKIGYYGFSNYVGWHIAKASEIAKARGYTRPVTLQPQYNLLMRDIELEIVAACQDAGMGLLPWSPLGGGWLTGKYKRDEMPTGATRLGENPNRGGESYAPRNAQERTWAIIGTVEEIAKARGVSMAQVALAWTAARPAITSVILGARTPEQLADNLGAMKVELSGEEMARLNEVSAPQPLDYPYGKGGINQRHRKIEGGR
Km (purified protein [10]): 617 ± 33.5 µM
kcat (purified protein [10]): 0.410 ± 0.00922 s⁻¹
Km (purified protein [11]): 1020 ± 136 µM
kcat (purified protein [11]): 7.90 ± 0.678 s⁻¹
Km (purified protein [12]): 15.2 ± 1.41 µM
kcat (purified protein [12]): 0.337 ± 0.00757 s⁻¹
Km (purified protein [13]): 1230 ± 231 µM
kcat (purified protein [13]): 0.303 ± 0.0269 s⁻¹
Km (purified protein [14]): 1780 ± 410 µM
kcat (purified protein [14]): 6.43 ± 0.920 s⁻¹
Km (purified protein [15]): 3890 ± 516 µM
kcat (purified protein [15]): 0.782 ± 0.0803 s⁻¹
Km (purified protein [16]): 1560 ± 399 µM
kcat (purified protein [16]): 0.0242 ± 0.00344 s⁻¹

From publication PMC9427786, “Structure–function characterization of an aldo–keto reductase involved in detoxification of the mycotoxin, deoxynivalenol” (Scientific Reports, 2022)
